# From PMC8292354, “Molecular insights into the endoperoxide formation by Fe(II)/α-KG-dependent oxygenase NvfI” (Nature Communications, 2021)
# How the values were obtained:
# [1] = target: T1, NvfI (Aspergillus novofumigatus, UniProt A0A2I1BSX0); experiment: X-ray crystal structure, […] Å; format: binding; conditions: bidentate Fe ligand; binary (state I, monomer B) and ternary complex with asnovolin A (state III, monomer A)
# T1 construct: recombinant from pET28a in E. coli Rosetta 2(DE3) pLysS, Ni-NTA purified, MonoQ and Superdex 200; monomer in solution, apparent 34 kDa
# [2] = system: COC(=O)[C@@H]1C(=O)C(C)=C2O[C@@]3(C[C@]2(C)[C@H]1C)[C@@H](C)CC[C@H]1C(C)(C)OC(=O)CC[C@@]13C; experiment: purified protein; conditions: 50 mM HEPES pH 7.5, 1 μM FeSO4, 500 μM ascorbate, 500 μM α-KG, 30 °C, 2 min, 0.1 μM enzyme
# T1 sequence (A0A2I1BSX0 whole entry): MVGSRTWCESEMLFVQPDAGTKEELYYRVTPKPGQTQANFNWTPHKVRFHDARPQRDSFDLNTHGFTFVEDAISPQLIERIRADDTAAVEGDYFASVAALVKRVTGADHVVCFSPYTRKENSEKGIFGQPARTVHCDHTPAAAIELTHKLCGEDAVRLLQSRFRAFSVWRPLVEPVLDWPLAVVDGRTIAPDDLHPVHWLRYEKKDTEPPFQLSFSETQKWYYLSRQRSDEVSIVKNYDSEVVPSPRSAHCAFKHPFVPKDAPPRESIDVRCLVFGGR
compound,measurement,setting,value
O=C(O)CCC(=O)C(=O)O [α-KG],"X-ray crystal structure, 1.9 Å",[1],octahedral iron-center is coordinated by the bidentate α-KG and a water molecule
NvfI (Aspergillus novofumigatus IBT 16806),Km,[2],25.9 ± 7.2 µM
same,kcat,[2],0.29 ± 0.04 s⁻¹
